Patent US20210032351A1 (XDCEXPLORER SHANGHAI, published 2021)

What was measured:
[1] = target: T1, human EGFRvIII-hFc protein (human, UniProt P00533 25-645); assay: ELISA, coated EGFRvIII-hFc, antibody 1 nM
T1 construct: extracellular domain; made in HEK293 cells, purified on protein A; also called immunogen A; hFc-tagged EGFRvIII protein; not shown: human IgG Fc fragment (hFc) of the pCpC vector
Procedure: (§1) The purified immunogen A (EGFRvIII-hFc) obtained in example 1 (for the preparation method, see step (I) in example 1) is diluted with PBS to a final concentration of 1.0 μg/mL, and then added to a 96-well ELISA plate at 100 μl/well. The plate is sealed with a plastic film and incubated at 4° C. overnight. The next day, the plate is washed twice with a plate washing solution [PBS+0.01% (v/v) Tween20], and added with a blocking solution [PBS+0.01% (v/v) Tween20+1% (w/w) BSA] for blocking 2 hours at room temperature. The blocking solution is discarded, and the purified EGFRvIII antibody obtained in example 2 is added at 100 μl/well. The plate is incubated for 2 hours at 37° C., and then washed 3 times with the plate washing solution [PBS+0.01% (v/v) Tween20]. The plate is added with an HRP (horseradish peroxidase) labeled secondary antibody (purchased from Sigma), incubated at 37° C. for 2 hours, and then washed 3 times with the plate washing solution [PBS+0.01% (v/v) Tween20]. The plate is added with 100 μl of TMB substrate/well, incubated for 30 minutes at room temperature, and then added with 100 μl of stopping solution (1.0N HCl)/well. A450 nm value is read using an ELISA plate reader (SpectraMax 384plus, purchased from Molecular Device), and the results are shown in FIG. 6 and table 10.

[2] = target: T1, human EGFRvIII-hFc protein; assay: ELISA, coated EGFRvIII-hFc, antibody 0.1 nM
Procedure: as §1

[3] = target: T1, human EGFRvIII-hFc protein; assay: ELISA, coated EGFRvIII-hFc, antibody 10 nM
Procedure: as §1

[4] = target: T1, human EGFRvIII-hFc protein; assay: ELISA, coated EGFRvIII-hFc, antibody 0.001 nM
Procedure: as §1

[5] = target: T1, human EGFRvIII-hFc protein; assay: ELISA, coated EGFRvIII-hFc, antibody 0.01 nM
Procedure: as §1

[6] = target: T1, human EGFRvIII-hFc protein; assay: ELISA, coated EGFRvIII-hFc, antibody 0.0001 nM
Procedure: as §1

[7] = target: T1, human EGFRvIII-hFc protein; assay: ELISA, coated EGFRvIII-hFc, antibody 100 nM
Procedure: as §1

[8] = target: T2, human EGFR protein (wild-type), on cells (human, UniProt P00533 25-1210); assay: FACS on U87MG and HEB cells
T2 construct: whole, on cells; transfected on CHO-K1 cells; endogenous on the human cell lines; the cell is named under assay; also called wild-type EGFR; hEGFR
Procedure: The collected cells are suspended to 2×10⁶ cells/mL with an FACS buffer (HBSS+1% BSA, with the percentage being the mass percentage), added to a 96-well FACS reaction plate at 100 μL/well, then added with 100 μL/well of the purified EGFRvIII antibody (samples to be tested) obtained in example 2, and incubated on ice for 2 hours. The plate is centrifugally washed twice with the FACS buffer, added with 100 μL/well of a fluorescence (Alexa 488) labeled secondary antibody (purchased from Invitrogen), and then incubated on ice for 1 hour. The plate is centrifugally washed 3 times with the FACS buffer, added with 100 μL/well of a fixing solution [4% (v/v) paraformaldehyde] for suspending the cells, and centrifugally washed twice with the FACS buffer after 10 minutes. The cells are suspended in 100 μL of the FACS buffer, and the results are detected and analyzed by FACS (FACS Calibur, purchased from BD). Data analysis is performed by using the software (CellQuest) to obtain the mean fluorescence intensity (MFI) of the cells. Data is further analyzed by using the software (GraphPad Prism5) to perform data fitting and calculate EC50. […] A431 cells (human epidermal cell cancer cell lines) have a large amount of wild-type EGFR protein expressed on the surface thereof. […] U87MG cells (human glioma cell lines) have a small amount of wild-type EGFR protein expressed on the surface thereof, while HEB cells (human glioma cell lines) have a high level of wild-type EGFR protein expression on the surface thereof.

[9] = target: T3, human wild-type EGFR protein on the cell surface (human, UniProt P00533 25-1210); assay: FACS, MFI on A431 cells over MFI on normal primary hepatocytes
T3 construct: whole, on cells; Endogenous on A431, HEB, U87MG cells and normal human primary hepatocytes; transfected on CHOk1-EGFR cells; The cell is named under assay; also called A431; HEB
Procedure: (§2) The preparation of U87MG-EGFRvIII required for FACS detection is as described in the preparation of the immunogen B in example 1. Normal human primary hepatocytes are purchased from BioreclamationIVT, and A431 tumor cells are purchased from ATCC. The recovered hepatocytes are directly used for FACS detection, and the recovered U87MG-EGFRvIII and A431 cells are subjected to an expanded culture to 90% confluence in a T-75 cell culture flask; the medium is sucked out, and the cells are washed twice with a HBSS buffer (Hanks Balanced Salt Solution) (purchased from Invitrogen), and then treated with an enzyme-free cell dissociation solution (Versene solution: purchased from Life Technology) and collected. The cells are washed twice with the HBSS buffer and are counted, and then the cells are diluted with the HBSS buffer to 2×10⁶ cells/ml, added with 1% goat serum blocking solution, with the percentage being the mass percentage, and incubated on ice for 30 minutes, and then centrifugally washed twice with the HBSS buffer. The collected cells are resuspended to 2×10⁶ cells/mL with an FACS buffer (HBSS+2% FBS, with the percentage being the volume percentage), added to a 96-well FACS reaction plate at 100 μL/well, then added with 100 μL/well of the purified EGFRvIII antibody (samples to be tested) obtained in example 12, and incubated on ice for 2 hours. The plate is centrifugally washed twice with the FACS buffer, added with 100 μL/well of a 1:1000 diluted fluorescence (Alexa 488) labeled secondary antibody (purchased from Invitrogen), and incubated on ice for 1 hour. The plate is centrifugally washed 3 times with the FACS buffer, added with 100 μL/well of a fixing solution [4% (v/v) paraformaldehyde] to resuspend the cells, and centrifugally washed twice with the FACS buffer after 10 minutes. The cells are resuspended in 100 μL of the FACS buffer, and the results are detected and analyzed by FACS (FACS Calibur, purchased from BD). Data analysis is performed by using the software (CellQuest) to obtain the mean fluorescence intensity (MFI) of the cells. Data is further analyzed by using the software (GraphPad Prism5) to perform data fitting and calculate EC50.

[10] = target: T4, human EGFRvIII protein on the cell surface (human, UniProt P00533 25-1210); assay: FACS on U87MG-EGFRvIII cells
T4 construct: whole, on cells; the cell line is named under assay; also called hEGFRvIII; U87MG-hEGFRvIII
Procedure: as §2

[11] = target: T3, human wild-type EGFR protein on the …; assay: FACS on normal human primary hepatocytes
Procedure: as §2

[12] = target: T5, human EGFRvIII-hFc protein (human, UniProt P00533 25-645); assay: ELISA, EGFRvIII-hFc coated
T5 construct: extracellular domain; also called immunogen A; hFc-tagged EGFRvIII protein; not shown: human IgG Fc fragment (hFc) of the pCpC vector
Procedure: The purified humanized anti-EGFRvIII antibody obtained in example 12 is reacted with a human EGFRvIII-hFc protein.
as §1, with “The blocking solution is discarded, and the purified EGFRvIII antibody obtained in example 2 is added at 100 μl/well.” left out, “Device).” for “Device), and the results are shown in FIG. 6 and table 10.”

[13] = target: T3, human wild-type EGFR protein on the …; assay: FACS on A431 tumor cells
Procedure: as §2

Binder | OD450 nm [1] | OD450 nm [2] | OD450 nm [3] | OD450 nm [4] | OD450 nm [5] | OD450 nm [6] | OD450 nm [7] | binding result [8] | Selective window (MFI A431/Hepatocytes) [9] | EC50 [10] | Maximum mean fluorescence intensity [10] | MFI [11] | EC50 [12] | Maximum OD450 value [12] | MFI [13]
Murine anti-64B11 (antibody, V domains shown, murine hybridoma antibody; also called 64B11F2) VH: EVQLQQSGAELVKPGASVKLSCTASGFNIKDYYMHWVKQRTEQGLEWIGRIDPEDGETKYAPKFQGKATITADTSSNTAYLQLSNLPSEDTAVYYCGCRTGGFAYWGQGTLVTVSA VL: DILMTQSPSSMSVSLGDTVSITCHASQGINSNIGWLQQKPGKSFKALIYHGTNLEDGVPSRFSGSGSGADYSLTISSLESEDFADYYCVQYAQFPFTFGSGTELEIK | 1.58 | 0.24 | 3.63 | 0.08 | 0.09 | 0.08 | 3.64 | no binding |  |  |  |  |  |  | 
Murine anti-49G12 (antibody, V domains shown, murine hybridoma antibody; also called 49G12G5) VH: EVQLLQSGAELVKPGASVKLSCTASGFNIKDYYMHWVKQRTEQGLEWIGRIDPEDGETKYAPKFQGKATMTADTSSNTAYLQLSSLTSEDTAVYYCASSAYYGRNYWGQGTTLTVSS VL: QIVLTQSPAIMSASPGEKVTLTCSASSSLSSSYLYWYQQKPGSSPKLWIYSTSNLASGVPARFSGSGSGTSYSLTISSMEAEDAASYFCHQWSSYPYTFGGGTKLEIK | 3.2 | 0.64 | 3.8 | 0.13 | 0.14 | 0.08 | 3.79 | no binding |  |  |  |  |  |  | 
Murine anti-51G7 (antibody, V domains shown, murine hybridoma antibody; also called 51G7C2) VH: EVQLQQSGAELVKPGASVKLSCTASGFNIKDFYIHWVKQRTEQGLEWIGRIDPEDGETKYAPKFQDKATIIADTSSNTAYLQLSSLTSEDTAVYYCASSSYYGNNYWGQGTTLTVSS VL: QIVLTQSPAIMSASPGEKVTLTCSASSSVSSNYLYWYQQKPGSSPKLWIYSTSNLASGVPARFSGSGSGTSYSLTISSMEAEDAASYFCHQWSSFPYTFGGGTKLEIK | 2.44 | 0.46 | 3.69 | 0.09 | 0.15 | 0.08 | 3.68 | no binding |  |  |  |  |  |  | 

More lines, now with the values ahead:

OD450 nm [1] | OD450 nm [2] | OD450 nm [3] | OD450 nm [4] | OD450 nm [5] | OD450 nm [6] | OD450 nm [7] | binding result [8] | Selective window (MFI A431/Hepatocytes) [9] | EC50 [10] | Maximum mean fluorescence intensity [10] | MFI [11] | EC50 [12] | Maximum OD450 value [12] | MFI [13] | Binder
 |  |  |  |  |  |  |  | 45 fold | 5.83 nM | 18200 MFI | 238 MFI | 0.58 nM | 2.83 OD450 | 10700 MFI | Humanized antibody h75G7C6-9 (antibody, human IgG1, V domains shown, also called VH-g1/VL-g0) VH: QVQLVQSGAEVKKPGASVKVSCKASGYTFTDYNMDWVRQAPGQGLEWIGDINPNNADTIYNQKFKGRVTLTVDTSTSTVYMELSSLRSEDTAVYYCARGDYDGYYPVYYAMDYWGQGTTVTVSS VL: EIVLTQSPATLSLSPGERATLSCRASSSVSSSYLHWYQQKPGQAPRLLIYSTSNLAAGIPARFSGSGSGTDFTLTISSLEPEDFAVYYCQQYSGYPLTFGGGTKVEIK
3.5 | 0.72 | 3.85 | 0.09 | 0.15 | 0.08 | 3.83 | no binding |  |  |  |  |  |  |  | Murine anti-46C4 (antibody, V domains shown, murine hybridoma antibody; also called 46C4A6) VH: EVHLQQSVAELVRPGASVKLSCTASGFNIKNTYMHWVKQRPEQGLEWIGRIDPANGNTKYAPKFQGKATITADTSSNTAYLQLSSLTSEDTAIYYCASDFDYWGQGTTLTVSS VL: DVLMTQTPLSLPVSLGDQVSISCRSSQSIVNSNGNTHLEWYLQKPGQSPKVLIYKVSKRFSGVPDRFSGSGSGTDFTLKISRVEAEDLGVYYCFQGSHVPYTFGGGTKLEIK
